Measured values published in publication PMC11784345.

The sequences below were run on MBP-His8-MilO (Streptoverticillium rimofaciens (Streptomyces rimofaciens)) (assay: fluorescence polarization). Details: EMSA: 20 mM Tris-HCl pH 8.0, 100 mM KCl, 2.5 mM MgCl2, 0.2 mM DTT, 10% glycerol, salmon sperm DNA, 30 C 10 min (Fig 5 legend: room temperature); FP: 20 mM Tris ….

Binding signal (fold decrease in affinity vs OBSWT), 3:
CACTATTTAATCGTGTCGCTCGGTGGTGTCCGCCGGTGCCCCGG (double strand) [OBSM1]
TGTCGCCCGGTCGTATTATCTAACGGTGTCCGCCGGTGCCCCGG (double strand) [OBSM2]
TGTCGCCCGGTCGTGTCGCTCGGTGGCGCCTATCAACGCCCCGG (double strand) [OBSM3]
